Target: EcbAgaN (Escherichia coli long-B pAgo-associated nuclease) (Escherichia coli)
Assay: SEC-MALS

A stoichiometry N of 2 was found for “EcbAgaN (Escherichia coli long-B pAgo-associated nuclease) (enzyme)” in this work.
